Eight molecules from patent US20050059087A1 (Amgen, published 2005) can be followed below.

The term Kd denotes the constant that tells how readily two partners part at equilibrium. As a reminder, the koff is the rate constant with which the complex falls apart. As usually defined, the kon is the second-order rate constant of association.

In experiment [1] the target is T1, Pep-3, NH2-LEEKKGNYVVTDHG-OH (human).
T1 construct: Free peptide used in Biacore and KinExA (MW 1590 Da)
T1 peptide: H-LEEKKGNYVVTDHG-OH
Put plainly: Biacore 2000 SPR, mAb immobilised, pep-3 analyte; 95% confidence interval in parentheses. From the text: (§1) Two CM5 sensor chips were used in total to immobilize both mAbs. […] Biacore 2000 optical biosensors were used for all studies.
(§2) Next, pep-3 was flowed across the mAb immobilized biosensor surfaces. […] Blank injections were run every sixth sample throughout the injection series for double referencing purposes.
Background: Surface plasmon resonance follows binding to a sensor surface in real time, without labels.

Experiment [2] has as its target T2, EGFRvIII, full length, expressed by transfected cells (NR6 M, H1477, 300.19/EGFRvIII) (human, UniProt P00533 298-1210). The experiment in a line: cell-based or functional assay.
Experiment [3] addresses T1, Pep-3, NH2-LEEKKGNYVVTDHG-OH. Put plainly: Biacore 2000 SPR, mAb immobilised, pep-3 analyte; 95% confidence interval in parentheses.
Description: as §1, §2

The target is the same in experiment [4]. The experiment in a line: Biacore SPR, mAb immobilised, Pep-3 analyte (single experiment of Example 25).
For experiment [5], the target named is T2, EGFRvIII, full length, expressed by …. The experiment in a line: FACS on NR6 M cells, antibody at 0.25 µg/ml with SS Alexa anti-human IgG Fab, 37° C. for 1 hr, no glutathione (total cell-associated fluorescence). The method, then:
XenoMax derived IgG1 recombinant antibodies were expressed, purified and quantitated as described previously. Antibodies were further assayed for their ability to internalize the EGFRvIII receptor in NR6 M cells. […] The cells were washed with cold 10% FCS in PBS and secondary antibody (SS Alexa antihuman IgG Fab) at 3 μg/ml Fab was added and incubated for 7 mins on ice. The cells were washed with cold 10% FCS in PBS once and then resuspended in cold media. Next, two sets of the triplicate were incubated at 37° C. and the remaining set was incubated at 4° C. for 1 hr. After that the cells incubated at 4° C. and one set of the cells incubated at 37° C. were treated with glutathione (as previously mentioned) for 1 hr on ice. Then the cells were washed and resuspended in 100 μl of cold 1% FCS in PBS and analyzed by FACS. The % internalization was calculated from the geometric mean obtained from the FACS analysis [(mean at 37° C. with glutathione—mean at 4° C. with glutathione)/(mean at 37° C. without glutathione—mean at 4 C with glutathione)].

In experiment [6] the target is T1, Pep-3, NH2-LEEKKGNYVVTDHG-OH. Put plainly: KinExA, pep3; KinExA (solution equilibrium), pep3; not Biacore. On the technique in general: In KinExA the mixture passes briefly over coated beads that capture the unbound partner.
The target in experiment [7] is T3, wild type EGFR expressed by cells (NR6 Wt, A431, A549, H80, SF-539, A498, SKRC-52) (human, UniProt P00533 25-1210).
T3 construct: Also used here for Western blots of cell lysates; also called wtEGFR; Wt receptor
The experiment in a line: FACS on H80 glioblastoma cells (wild type EGFR only), 30 min on ice, PE goat anti-human IgG; filled histogram = irrelevant IgG. The protocol: The specificity of the purified antibodies was ascertained by performing FACS analysis on a panel of cell lines. H80, a human glioblastoma line, and H1477 (H80-EGFRvIII) that expresses high levels of EGFRvIII, A431, a human epidemoid carcinoma line, and A549, a human lung carcinoma cell line were used as the cell lines. All cell lines were from Dr. Bigner except A431 and A549, which were from ATCC (Rockville, Md., U.S.A.). Cells were incubated on ice with 10 μg/ml of the respective antibody for 30 min., washed in FACS buffer and subsequently incubated with PE-conjugated goat anti-human IgG from Jackson ImmunoResearch (West Grove, Pa., U.S.A.).

Experiment [8] has as its target EGFrVIII antigen (ELISA antigen of Examples 15, 17 and 21; form not stated) (human, UniProt P00533 298-645, limits assumed). Put plainly: ELISA, 293 cell supernatant on EGFrVIII antigen. The method, then:
Each mutated chain was then transfected with the complementary wild-type chain in 293 cells. Supernatants were then tested for expression and secretion of human IgG antibodies, and for binding to EGFrVIII antigen.
On the technique in general: An ELISA detects its analyte on a solid surface through an enzyme-linked reagent.

Experiment [9] has as its target T1, Pep-3, NH2-LEEKKGNYVVTDHG-OH. Put plainly: Biacore 2000 SPR, steady-state (equilibrium) binding model, pep-3 analyte. From the text: The first step in these examples involved the immobilization of 5,600 resonance units (RU) to 8,000 RU of each mAb tested to one flow cell (Fc) of a CM5 sensor chip using standard EDC/NHS coupling chemistry. […] Three CM5 sensor chips were used in total to immobilize all mutant mAbs with a unique mAb immobilized to each flow cell. […] Biacore 2000 optical biosensors were used for all studies.

Experiment [10] has the same target. The experiment in a line: Biacore 2000 SPR, mAb immobilised, pep-3 analyte (range between runs).
Description: as §1, §2

For experiment [11], the target named is T4, EGFRvIII peptide-OVA (PEP3 14-mer conjugated to ovalbumin) (human, also: conjugated to OVA, chemistry not given here).
T4 construct: also called VIII-pep-OVA; muEGFr
T4 peptide: LEEKKGNYVVTDHC
The experiment in a line: XenoMax screening.

Experiment [12] deals with T1, Pep-3, NH2-LEEKKGNYVVTDHG-OH. Put plainly: KinExA, pep3. The protocol: All KinExA experiments were conducted at room temperature (˜23° C.). For all equilibrium experiments, antigen was serially diluted into solutions having a constant mAb binding site concentration. For the first 10 titration points the dilutions were 2-fold and the 11th and 12th serial dilutions were 10-fold. The sample flow rate for all experiments was 0.25 mL/min and the labeling antibody flow rate was 0.5 mL/min. […] A sample volume of 250 μL was analyzed for the antibody-controlled experiment. Two or three replicates of each sample were measured for all equilibrium experiments. The equilibrium titration data were fit in a dual curve analysis to a 1:1 binding model using KinExA software (Version 2.4, Sapidyne Instruments).

The target is the same in experiment [13]. The experiment in a line: Biacore 2000 SPR, mAb immobilised, pep-3 analyte, 23 C. The protocol:
Standard EDC/NHS and carbohydrate coupling was used to covalently immobilize mAbs to a CM5 sensor chip. To minimize mass transport and crowding mAbs were immobilized at levels that gave a maximum antigen binding response (Rₘₐₓ) of no more than 50-100 RU. A reference flow cell on each chip was activated and blocked with no mAb immobilization to serve as a control.
All Biacore kinetic experiments were conducted at 23° C. […] Antigen samples were randomly injected over the biosensor surface in triplicate at 100 μL/min. Several buffer blanks were injected intermittently over the course of an experiment for double referencing. Each pep-3 concentration and blank were injected for 90 seconds. Dissociation was followed for 13 to 180 minutes.
All Biacore sensorgrams were processed using Scrubber software (Version 1.1f, BioLogic Software, Australia). Sensorgrams were first zeroed on the y-axis and then x-aligned at the beginning of the injection. Bulk refractive index changes were removed by subtracting the reference flow cell responses. The average response of all blank injections was subtracted from all analyte and blank sensorgrams to remove systematic artifacts between the experimental and reference flow cells. CLAMP biosensor data analysis software (Version 3.40, BioLogic Software, Australia) was used to determine kₐ and kd from the processed data sets. Data from all flow cells were globally fit to a 1:1 bimolecular binding model that included a mass transport term. […] The KD was calculated from the quotient kd/kₐ.

In experiment [14] the target is T5, EGFRvIII-rabbit Fc fusion protein (human; rabbit, UniProt P00533 298-645).
T5 construct: made in 293F cells; also called EGFRvIII-RbFc; EGFRvIII-Rab Ig Fc fusion protein; not shown: rabbit IgG Hinge-CH2-CH3 (721 bp fragment)
Put plainly: ELISA, minilipofection supernatant titrated 1:2 on EGFRvIII-Rab Ig Fc fusion protein (1.5 ug/ml). The method, then: The secretion ELISA tests were performed as follows. […] The plates were washed five times with dH₂O. Recombinant antibodies were titrated 1:2 for 7 wells from the undiluted minilipofection supernatant. The plates were washed five times with dH₂O. A goat anti-human IgG Fc-specific HRP-conjugated antibody was added at a final concentration of 1 μg/mL for 1 hour at RT for the secretion plates and binding plates detected with 1 μg/ml Rb anti Hu Fc for 1 hour at room temperature. The plates were washed five times with dH₂O. The plates were developed with the addition of TMB for 30 minutes and the ELISA was stopped by the addition of 1 M phosphoric acid. Each ELISA plate was analyzed to determine the optical density of each well at 450 nm.

In experiment [15] the target is T3, wild type EGFR expressed by cells (NR6 …). The experiment in a line: FACS, 10 ug/ml antibody, H80, A431 and A549 cells.

No end group written: not given here.

B1: AB-EGFRvIII-XG1K-13.1.2 (antibody, V domains shown)
VH: QVQLVESGGGVVQPGRSLRLSCAASGFTFSSYGMHWVRQAPGKGLEWVAVIWYDGSNKYYVDSVKGRFTISRDNSKNTLYLQMNSLRAEDTAVYYCARDGWQQLAPFDYWGQGTLVTVSS
VL: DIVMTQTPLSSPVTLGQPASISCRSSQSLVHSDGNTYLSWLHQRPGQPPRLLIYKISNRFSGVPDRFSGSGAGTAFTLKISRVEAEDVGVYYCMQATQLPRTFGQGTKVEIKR
B1: in [1], the equilibrium dissociation constant (Kd) is 75 nM, the dissociation rate constant (koff) amounted to 0.016 s⁻¹ and the on-rate constant (kon) came to 210000 M⁻¹ s⁻¹. Moreover, in experiment [2], the “% internalization” value was 82.5%; the “FACS Geometric mean, With glutathione 4° C.” value came out at 5.38 geometric mean; the “FACS Geometric mean, With glutathione 37° C.” value amounted to 19.2 geometric mean. Moreover, in experiment [3], the dissociation constant (Kd) is 75 nM, the dissociation rate constant (koff) was 0.016 s⁻¹ and the kon is 210000 M⁻¹ s⁻¹. The affinity in experiment [4], expressed as Kd, was 67 nM. In addition, the “FACS Geometric mean (without glutathione, 37° C.)” value in experiment [5] amounted to 22.1 geometric mean. The Kd in [6] stood at 0.025 nM. For the same molecule, the binding result in experiment [7] is on record as “no binding (tested: 10 µg/ml)”.

B2: 13.1.2 variant Arg101Asp (antibody, V domains shown)
VH: QVQLVESGGGVVQPGRSLRLSCAASGFTFSSYGMHWVRQAPGKGLEWVAVIWYDGSNKYYVDSVKGRFTISRDNSKNTLYLQMNSLRAEDTAVYYCARDGWQQLAPFDYWGQGTLVTVSS
VL: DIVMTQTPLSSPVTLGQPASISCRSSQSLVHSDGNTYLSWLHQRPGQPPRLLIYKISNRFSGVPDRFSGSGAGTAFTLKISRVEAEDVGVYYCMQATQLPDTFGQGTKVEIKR
notes: Mutated chain co-transfected with the complementary wild-type chain in 293 cells; supernatant tested
As for B2, the binding result in [8] is given as “no binding”.

B3: 13.1.2 variant Arg101Gln (antibody, V domains shown)
VH: QVQLVESGGGVVQPGRSLRLSCAASGFTFSSYGMHWVRQAPGKGLEWVAVIWYDGSNKYYVDSVKGRFTISRDNSKNTLYLQMNSLRAEDTAVYYCARDGWQQLAPFDYWGQGTLVTVSS
VL: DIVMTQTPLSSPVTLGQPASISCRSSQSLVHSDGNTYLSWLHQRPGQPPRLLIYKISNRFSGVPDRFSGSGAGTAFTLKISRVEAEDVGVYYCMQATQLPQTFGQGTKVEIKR
notes: as for B2
As to B3, in [8], the binding result was “no binding”.

B4: 13.1.2 variant Arg101Glu (antibody, V domains shown)
VH: QVQLVESGGGVVQPGRSLRLSCAASGFTFSSYGMHWVRQAPGKGLEWVAVIWYDGSNKYYVDSVKGRFTISRDNSKNTLYLQMNSLRAEDTAVYYCARDGWQQLAPFDYWGQGTLVTVSS
VL: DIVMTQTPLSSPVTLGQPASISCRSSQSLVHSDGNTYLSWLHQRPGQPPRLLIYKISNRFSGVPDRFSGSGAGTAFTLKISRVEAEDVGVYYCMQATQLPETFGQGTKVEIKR
notes: as for B2
B4: the binding result in experiment [8] was “no binding”.

B5: 13.1.2 variant L99N-4.1 (antibody, V domains shown)
VH: QVQLVESGGGVVQPGRSLRLSCAASGFTFSSYGMHWVRQAPGKGLEWVAVIWYDGSNKYYVDSVKGRFTISRDNSKNTLYLQMNSLRAEDTAVYYCARDGWQQLAPFDYWGQGTLVTVSS
VL: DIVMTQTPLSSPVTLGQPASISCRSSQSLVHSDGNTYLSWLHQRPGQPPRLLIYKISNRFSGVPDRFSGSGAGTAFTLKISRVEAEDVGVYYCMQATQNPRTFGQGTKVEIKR
notes: also called Leu99Asn; 99Asn
Molecule B5 yielded an equilibrium dissociation constant (Kd) in [9] of 1400 nM.

B6: 13.1.2 variant L99T-5.3 (antibody, V domains shown)
VH: QVQLVESGGGVVQPGRSLRLSCAASGFTFSSYGMHWVRQAPGKGLEWVAVIWYDGSNKYYVDSVKGRFTISRDNSKNTLYLQMNSLRAEDTAVYYCARDGWQQLAPFDYWGQGTLVTVSS
VL: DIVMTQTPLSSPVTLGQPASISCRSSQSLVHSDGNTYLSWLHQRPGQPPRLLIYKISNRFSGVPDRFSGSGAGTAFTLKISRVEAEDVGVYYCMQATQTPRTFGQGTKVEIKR
notes: also called Leu99Thr; 99Thr
As for B6, in experiment [3], the dissociation constant (Kd) came to 60 nM, the off-rate constant (koff) worked out at 0.013 s⁻¹ and the on-rate (kon) came to 216000 M⁻¹ s⁻¹. The same molecule registered a Kd in experiment [10] of 54 to 70 nM.

B7: SC-EGFRvIII-XG1-131 (antibody, V domains shown)
VH: QVQLVESGGGVVQSGRSLRLSCAASGFTFRNYGMHWVRQAPGKGLEWVAVIWYDGSDKYYADSVRGRFTISRDNSKNTLYLQMNSLRAEDTAVYYCARDGYDILTGNPRDFDYWGQGTLVTVSS
VL: DTVMTQTPLSSHVTLGQPASISCRSSQSLVHSDGNTYLSWLQQRPGQPPRLLIYRISRRFSGVPDRFSGSGAGTDFTLEISRVEAEDVGVYYCMQSTHVPWTFGQGTKVEIK
notes: also called SC131; sc131
In the case of B7, the binding result in experiment [11] was “binds”. For the same molecule, binding in [12] was characterised by a dissociation constant (Kd) of 0.05 pM.

B8: SC-EGFRvIII-XG1-139 (antibody, V domains shown)
VH: EVQVLESGGGLVQPGGSLRLSCAASGFTFSSYAMSWVRQAPGKGLEWVSAISGSGGSTNYADSVKGRFTISRDNSKNTLYLQMNSLRAEDTAVYYCAGSSGWSEYWGQGTLVTVSS
VL: DIQMTQSPSSLSASVGDRVTITCRASQGIRNNLAWYQQKPGKAPKRLIYAASNLQSGVPSRFTGSGSGTEFTLIVSSLQPEDFATYYCLQHHSYPLTSGGGTKVEIK
notes: also called SC139; sc139
For the molecule B8, the binding result in experiment [11] is “binds”. Also, in experiment [2], the “% internalization” value was 80.8%; the “FACS Geometric mean, With glutathione 4° C.” value came to 4.88 geometric mean; the “FACS Geometric mean, With glutathione 37° C.” value is 19.2 geometric mean. In experiment [13], this molecule showed a dissociation constant (Kd) of 290 nM, a koff of 0.00298 s⁻¹ and a kon of 10300 M⁻¹ s⁻¹. Also, the “Titer, antigen binding” value in [14] was more than 64 reciprocal dilution. Further, the “FACS Geometric mean (without glutathione, 37° C.)” value in experiment [5] was found to be 22.6 geometric mean. Further, the “staining relative to ABX-EGF (E7.6.3)” value in [15] was determined as 10%.
